In IntAct's records for PubMed 30058071:

Target: SHANK3, Q9BYB0-1
Sequence (Q9BYB0 whole entry): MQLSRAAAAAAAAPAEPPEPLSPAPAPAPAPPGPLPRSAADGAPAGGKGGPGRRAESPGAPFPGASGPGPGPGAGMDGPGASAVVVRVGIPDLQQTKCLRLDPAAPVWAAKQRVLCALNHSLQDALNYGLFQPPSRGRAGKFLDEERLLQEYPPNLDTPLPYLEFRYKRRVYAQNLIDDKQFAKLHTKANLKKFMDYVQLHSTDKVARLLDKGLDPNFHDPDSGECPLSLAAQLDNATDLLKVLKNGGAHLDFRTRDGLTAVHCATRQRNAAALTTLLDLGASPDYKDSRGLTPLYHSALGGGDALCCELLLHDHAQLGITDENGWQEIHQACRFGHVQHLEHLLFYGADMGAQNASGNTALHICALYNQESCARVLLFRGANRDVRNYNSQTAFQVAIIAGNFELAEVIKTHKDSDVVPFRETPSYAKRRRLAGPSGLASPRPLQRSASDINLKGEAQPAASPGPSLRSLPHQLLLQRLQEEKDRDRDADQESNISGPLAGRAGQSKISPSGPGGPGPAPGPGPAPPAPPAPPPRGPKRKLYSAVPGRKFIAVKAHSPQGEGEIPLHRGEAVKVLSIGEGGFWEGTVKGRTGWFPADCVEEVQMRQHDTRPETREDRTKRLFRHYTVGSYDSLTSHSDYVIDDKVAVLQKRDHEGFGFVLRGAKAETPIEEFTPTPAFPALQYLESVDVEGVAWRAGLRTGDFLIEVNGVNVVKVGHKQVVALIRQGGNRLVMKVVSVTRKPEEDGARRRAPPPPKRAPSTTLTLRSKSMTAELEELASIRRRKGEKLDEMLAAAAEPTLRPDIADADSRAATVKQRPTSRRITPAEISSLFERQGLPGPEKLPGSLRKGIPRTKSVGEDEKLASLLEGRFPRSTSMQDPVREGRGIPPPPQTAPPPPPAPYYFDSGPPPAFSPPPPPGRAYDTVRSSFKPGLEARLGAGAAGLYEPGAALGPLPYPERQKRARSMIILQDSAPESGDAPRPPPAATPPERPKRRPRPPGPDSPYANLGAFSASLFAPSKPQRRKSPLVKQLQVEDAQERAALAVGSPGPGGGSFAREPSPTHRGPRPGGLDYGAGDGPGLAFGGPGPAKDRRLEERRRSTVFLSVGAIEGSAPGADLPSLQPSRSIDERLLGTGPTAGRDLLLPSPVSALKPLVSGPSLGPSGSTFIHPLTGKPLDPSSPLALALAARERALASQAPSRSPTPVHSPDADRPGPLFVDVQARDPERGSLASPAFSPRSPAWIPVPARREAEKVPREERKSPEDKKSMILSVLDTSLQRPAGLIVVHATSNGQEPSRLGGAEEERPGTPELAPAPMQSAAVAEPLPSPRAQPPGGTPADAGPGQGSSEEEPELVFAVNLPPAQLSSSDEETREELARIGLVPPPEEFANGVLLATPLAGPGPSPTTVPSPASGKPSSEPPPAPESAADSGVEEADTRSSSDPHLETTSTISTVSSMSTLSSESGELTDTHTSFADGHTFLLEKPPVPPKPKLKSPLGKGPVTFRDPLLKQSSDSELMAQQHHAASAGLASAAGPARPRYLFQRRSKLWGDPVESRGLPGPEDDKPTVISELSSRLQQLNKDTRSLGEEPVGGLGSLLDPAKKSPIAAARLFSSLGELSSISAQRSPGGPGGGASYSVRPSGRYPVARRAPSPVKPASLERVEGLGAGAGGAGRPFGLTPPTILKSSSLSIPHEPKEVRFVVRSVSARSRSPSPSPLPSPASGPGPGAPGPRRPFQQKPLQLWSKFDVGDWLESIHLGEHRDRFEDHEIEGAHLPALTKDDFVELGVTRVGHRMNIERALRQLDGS

Voltage-dependent L-type calcium channel subunit alpha-1D (Homo sapiens), Q01668 R1908G
effect of a mutation on the interaction: disrupting interaction strength
